According to patent US20030092616A1, “STAT6 activation gene” (priority 2001, published 2003):

Tested on: STAT6
Assay: Screening of full-length cDNA clones for promotion of STAT6 activation (luciferase reporter N4×8-luc)
Type: cell-based
Settings: NIH3T3 cells cotransfected with N4×8-luc reporter and cDNA plasmid; 48 h culture, then mouse IL-4 0.5 ng/ml for 6 h
In short: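 NIH3T3 cells cotransfected with STAT6-responsive N4×8-luc reporter (100 ng) and full-length cDNA, cultured 48 h, then given mouse IL-4 at 0.5 ng/ml final for 6 h. Luciferase activity compared with reporter plus null-vector control.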

Molecule	Activity = (luciferase activity of the gene of each SEQ ID NO:)/(luciferase activity of pME18S-FL3)
117 (nucleic acid, listed as Homo sapiens, CDS (9)..(755)) GAGCGGCGATGCCGGGGCGGCGGCGCCCGAGTCCGGAGCCCGAGCCCGAAGAGGAGCCGCCCCGGCCCCGCGCCCCCCCGGGAGCTCCGGGCCCTGGGCCTGGTTCGGGAGCCCCCGGCAGCCAAGAGGAGGAGGAGGAGCCGGGACTGGTCGAGGGTGACCCGGGGGACGGCGCCATTGAGGACCCGGAGCTGGAAGCTATCAAAGCTCGAGTCAGGGAGATGGAGGAAGAAGCTGAGAAGCTAAAGGAGCTACAGAACGAGGTAGAGAAGCAGATGAATATGAGTCCACCTCCAGGCAATGCTGGCCCGGTGATCATGTCCATTGAGGAGAAGATGGAGGCTGATGCCCGTTCCATCTATGTTGGCAATGTGGACTATGGTGCAACAGCAGAAGAGCTGGAAGCTCACTTTCATGGCTGTGGTTCAGTCAACCGTGTTACCATACTGTGTGACAAATTTAGTGGCCATCCCAAAGGGTTTGCGTATATAGAGTTCTCAGACAAAGAGTCAGTGAGGACTTCCTTGGCCTTAGATGAGTCCCTATTTAGAGGAAGGCAAATCAAGGTGATCCCAAAACGAACCAACAGACCAGGCATCAGCACAACAGACCGGGGTTTTCCACGAGCCCGCTACCGCGCCCGGACCACCAACTACAACAGCTCCCGCTCTCGATTCTACAGTGGTTTTAACAGCAGGCCCCGGGGTCGCGTCTACAGGGGCCGGGCTAGAGCGACATCATGGTATTCCCCTTACTAAAAAAAGTGTGTATTAGGAGGAGAGAGAGGAAAAAAAGAGGAAAGAAGGAAAAAAAAAAGAATTAAAAAAAAAAAAAAGAAAAAC	10.1
6 (nucleic acid, listed as Homo sapiens, CDS (379)..(567)) TAAAAGAAGAGAAGAGGCTAAAGAAGAAAAGAAGAAAATCAACTTCTTCTTCAAGTGTTTCTTCTGCTGATGAATCAGTGTCTTCATCATCATCCTCTTCCTCTTCTGGTCACAAAAGGCATAAGAAACATAAGAGGAACCGTTCAGAGTCTTCTCGCAGTTCCAGAAGGCATTCATCTAGGGCATCCTCAAATCAGATAGATCAGAATAGGAAAGATGAGTGCTACCCAGTTCCAGCTAATACTTCAGCATCTTTTCTTAACCATAAACAAGAAGTGGAGAAACTACTGGGGAAGCAGGATAGGTTACAGTATGAAAAGACACAGATAAAAGAGAAAGATAGATGCCCTCTCTCTTCATCTTCACTTGAAATACCGGATGATTTTGGAGGTAGGTCTGAAGATCCAAGAGATTTTTATAACAGCTATAAAACCCAAGCAGGTAGTAGCAAAACAGAAAAGCCATATAAATCAGAAAGACATTTTTCCAGTAGAAGAAATTCCTCAGATTCCTTCTGTAGGAATTCAGAGGACAAGATTTATGGTTATAGGAGATTTGAAAAGGATATAGAGGGAAGAAAAGAGCACTATAGAAGGTGGGAACCAGGTTCTGTGAGGCATTCTACCTCACCAGCAAGCTCAGAATACTCTTGGAAGTCAGTTGAGAAATACAAAAAATACGCTCACTCTGGATCACGTGATTTCAGTAGACATGAGCAAAGATACCGTTTAAATACAAATCAAGGAGAATATGAAAGAGAGGACAATTATGGGGAGGATATCAAAACAGAGGTTCCAGAAGAAGATGCACTAAGTAGCAAAGAACACTCAGAAAGCAGTGTTAAGAAAAATTTACCTCAGAATTTACTGAATATATTTAATCAGATAGCTGAATTTGAAAAAGAAAAAGGAAATAAGTCAAAAAATTAATACACCAAGGATATCGGCACCATTACACAAAATGCCATTAAGTGAAGTTTTTGGTTGTATTAGTCATAACAGTTGAGTGCAGAAATCTCTGCTTCTAAAATTATTTGTAGAGATTACAGGAAACAAATGCTTTTAAGTAAGTTTTTCTCAAATTTTGTTTCAGTTCTAGGTCCCTTGTCACAGCTTGGTTTTTAGACTTTTTATGTATATGTTTATGTACAGTATATTACTCTTGACAGTTTGAATTTCTTCACCTAAAGATAATTCTCTGAAAGTACTGTTTCTTCATTCTATTGCGGTATATGAGAATTCCTGGGTGCATCTTATTCTGCTGTTTGAGAGAAAAATTTGTGCATTGAACACTTGGATCATTTTTATAAAAATTAATTTCATTTTCTTTTCTGTTAAATTAAAAATCGTCAGCTTTTGAAAGAT	127.5
115 (nucleic acid, listed as Homo sapiens, CDS (82)..(1071)) GTTTTCCGCCGTCCGTCCGGGCGGGCGGGCGCAGAGTCCCGCGGGCGGCGCGGAAGCGGCGGCGGCGCGGCCGGGGCAGCCATGTCGCCATTGTCTGCGGCGCGGGCGGCCCTGCGGGTCTACGCGGTAGGCGCCGCGGTGATCCTGGCGCAGCTGCTGCGGCGCTGCCGCGGGGGCTTCCTGGAGCCAGTTTTCCCCCCACGACCTGACCGTGTCGCTATAGTGACGGGAGGGACAGATGGCATTGGCTATTCTACAGCGAAGCATCTGGCGAGACTTGGCATGCATGTTATCATAGCTGGAAATAATGACAGCAAAGCCAAACAAGTTGTAAGCAAAATAAAAGAAGAAACCTTGAACGACAAAGTGGAATTTTTATACTGTGACTTGGCTTCCATGACTTCCATCCGGCAGTTTGTGCAGAAGTTCAAGATGAAGAAGATTCCTCTCCATGTCCTGATCAACAATGCTGGGGTGATGATGGTCCCTCAGAGGAAAACCAGAGATGGATTCGAAGAACATTTCGGCCTGAACTACCTAGGGCACTTCCTGCTGACCAACCTTCTCTTGGATACGCTGAAAGAGTCTGGGTCCCCTGGCCACAGTGCGAGGGTGGTCACCGTCTCCTCTGCCACCCATTACGTCGCTGAGCTGAACATGGATGACCTTCAGAGCAGTGCCTGCTACTCACCCCACGCAGCCTACGCCCAGAGCAAGCTGGCCCTTGTCCTGTTCACCTACCACCTCCAGCGGCTGCTGGCGGCTGAGGGAAGCCACGTGACCGCCAACGTGGTGGACCCCGGGGTGGTCAACACGGACCTCTACAAGCACGTGTTCTGGGCCACCCGTCTGGCGAAGAAGCTTCTCGGCTGGTTGCTTTTCAAGACCCCCGATGAAGGAGCGTGGACTTCCATCTACGCAGCAGTCACCCCAGAGCTGGAAGGAGTTGGTGGCCGTTACCTATACAACGAGAAAGAGACCAAGTCCCTCCACGTCACCTACAACCAGAAACTGCAGCAGCAGCTGTGGTCTAAGAGTTGTGAGATGACTGGGGTCCTTGATGTGACCCTGTGATATCCTGTCTCAGGATAGCTGCTGCCCCAAGAAACACATTGCACCTGCCAATAGCTTGTGGGTCTGTGAAGACTGCGGTGTTTGAGTTTCTCACACCCACCTGCCCACAGGGCTCTGTCCTCTAGTTTTGAGACAGCTGCCTCAACCTCTGCAGAACTTCAAGAAGCCAAATAAACATTTTGGAGGATAATCACCCCAAGTGGTCTTCAACCATAAACTTTGTGATTCCAAAGTGCCCAGTTGTCACAGGTGCCATAAATAATTACATTTTCCAACAT	8.6
349 (nucleic acid, listed as Homo sapiens, CDS (95)..(610)) CCCCCCCGAGCGCCGCTCCGGCTGCACCGCGCTCGCTCCGAGTTTCAGGCTCGTGCTAAGCTAGCGCCGTCGTCGTCTCCCTTCAGTCGCCATCATGATTATCTACCGGGACCTCATCAGCCACGATGAGATGTTCTCCGACATCTACAAGATCCGGGAGATCGCGGACGGGTTGTGCCTGGAGGTGGAGGGGAAGATGGTCAGTAGGACAGAAGGTAACATTGATGACTCGCTCATTGGTGGAAATGCCTCCGCTGAAGGCCCCGAGGGCGAAGGTACCGAAAGCACAGTAATCACTGGTGTCGATATTGTCATGAACCATCACCTGCAGGAAACAAGTTTCACAAAAGAAGCCTACAAGAAGTACATCAAAGATTACATGAAATCAATCAAAGGGAAACTTGAAGAACAGAGACCAGAAAGAGTAAAACCTTTTATGACAGGGGCTGCAGAACAAATCAAGCACATCCTTGCTAATTTCAAAAACTACCAGTTCTTTATTGGTGAAAACATGAATCCAGATGGCATGGTTGCTCTATTGGACTACCGTGAGGATGGTGTGACCCCATATATGATTTTCTTTAAGGATGGTTTAGAAATGGAAAAATGTTAACAAATGTGGCAATTATTTTGGATCTATCACCTGTCATCATAACTGGCTTCTGCTTGTCATCCACACAACACCAGGACTTAAGACAAATGGGACTGATGTCATCTTGAGCTCTTCATTTATTTTGACTGTGATTTATTTGGAGTGGAGGCATTGTTTTTAAGAAAAACATGTCATGTAGGTTGTCTAAAAATAAAATGCATTTAAACTCATTTGAGAG	24.3
345 (nucleic acid, listed as Homo sapiens, CDS (19)..(768)) CCAGCCAACGAGCGGAAAATGGCAGACAATTTTTCGCTCCATGATGCGTTATCTGGGTCTGGAAACCCAAACCCTCAAGGATGGCCTGGCGCATGGGGGAACCAGCCTGCTGGGGCAGGGGGCTACCCAGGGGCTTCCTATCCTGGGGCCTACCCCGGGCAGGCACCCCCAGGGGCTTATCCTGGACAGGCACCTCCAGGCGCCTACCATGGAGCACCTGGAGCTTATCCCGGAGCACCTGCACCTGGAGTCTACCCAGGGCCACCCAGCGGCCCTGGGGCCTACCCATCTTCTGGACAGCCAAGTGCCCCCGGAGCCTACCCTGCCACTGGCCCCTATGGCGCCCCTGCTGGGCCACTGATTGTGCCTTATAACCTGCCTTTGCCTGGGGGAGTGGTGCCTCGCATGCTGATAACAATTCTGGGCACGGTGAAGCCCAATGCAAACAGAATTGCTTTAGATTTCCAAAGAGGGAATGATGTTGCCTTCCACTTTAACCCACGCTTCAATGAGAACAACAGGAGAGTCATTGTTTGCAATACAAAGCTGGATAATAACTGGGGAAGGGAAGAAAGACAGTCGGTTTTCCCATTTGAAAGTGGGAAACCATTCAAAATACAAGTACTGGTTGAACCTGACCACTTCAAGGTTGCAGTGAATGATGCTCACTTGTTGCAGTACAATCATCGGGTTAAAAAACTCAATGAAATCAGCAAACTGGGAATTTCTGGTGACATAGACCTCACCAGTGCTTCATATACCATGATATAATCTGAAAGGGGCAGATTAAAAAAAAAAAAAAAGAATCTAAACCTTACATGTGTAAAGGTTTCATGTTCACTGTGAGTGAAAATTTTTACATTCATCAATATCCCTCTTGTAAGTCATCTACTTAATAAATATTACAGTGAAAG	3.7
